Compound in data set [1]: CC(C)C[C@H](NC(=O)OCC1c2ccccc2-c2ccccc21)C(=O)O
Description: Non-competitive inhibition of human recombinant-Sialin expressed in HEK293 cells assessed as reduction in [3H]Neu5Ac uptake by measuring Km level at 10 uM incubated for 15 mins by liquid scintillation counting method (reference value: 1.6 +/- 0.3 mM). The format is cell-based.

Compound in data set [2]: O=C(N[C@@H](CSCc1cc(=O)oc2cc(O)ccc12)C(=O)O)OCC1c2ccccc2-c2ccccc21
The data set is described as follows: Non-competitive inhibition of human recombinant-Sialin expressed in HEK293 cells assessed as reduction in [3H]Neu5Ac uptake by measuring Km level at 3 uM incubated for 15 mins by liquid scintillation counting method (reference value: 1.4 +/- 0.5 mM).

B1: Sialin (Homo sapiens), Q9NRA2 (protein)
chain: MRSPVRDLARNDGEESTDRTPLLPGAPRAEAAPVCCSARYNLAILAFFGFFIVYALRVNLSVALVDMVDSNTTLEDNRTSKACPEHSAPIKVHHNQTGKKYQWDAETQGWILGSFFYGYIITQIPGGYVASKIGGKMLLGFGILGTAVLTLFTPIAADLGVGPLIVLRALEGLGEGVTFPAMHAMWSSWAPPLERSKLLSISYAGAQLGTVISLPLSGIICYYMNWTYVFYFFGTIGIFWFLLWIWLVSDTPQKHKRISHYEKEYILSSLRNQLSSQKSVPWVPILKSLPLWAIVVAHFSYNWTFYTLLTLLPTYMKEILRFNVQENGFLSSLPYLGSWLCMILSGQAADNLRAKWNFSTLCVRRIFSLIGMIGPAVFLVAAGFIGCDYSLAVAFLTISTTLGGFCSSGFSINHLDIAPSYAGILLGITNTFATIPGMVGPVIAKSLTPDNTVGEWQTVFYIAAAINVFGAIFFTLFAKGEVQNWALNDHHGHRH
For B1, the Km (usually the substrate concentration at which the rate is half of its maximum) came to 1300 µM in data set [1] and 1700 µM in data set [2].

Values taken from ChEMBL document CHEMBL4627406, “Amino Acids Bearing Aromatic or Heteroaromatic Substituents as a New Class of Ligands for the Lysosomal Sialic Acid Transporter Sialin” (J Med Chem, 2020).
